For data set [1], the system named is T1, VEGF-165 (Homo sapiens), P15692-4.
T1 sequence: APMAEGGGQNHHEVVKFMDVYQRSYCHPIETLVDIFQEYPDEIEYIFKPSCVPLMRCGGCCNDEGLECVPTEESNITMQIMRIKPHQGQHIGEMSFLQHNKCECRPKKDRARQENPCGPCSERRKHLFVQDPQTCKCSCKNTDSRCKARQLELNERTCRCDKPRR
The data set is described as follows: SPR. Conditions: for binding signal: 10 nM VEGF-165, 930 s.

The next data set concerns the target T2, IFN-gamma (UniProt P01579).
T2 sequence: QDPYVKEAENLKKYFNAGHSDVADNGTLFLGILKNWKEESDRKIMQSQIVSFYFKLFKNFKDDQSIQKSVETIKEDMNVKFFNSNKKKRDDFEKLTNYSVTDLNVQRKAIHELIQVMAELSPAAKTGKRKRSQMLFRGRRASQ
The data set is described as follows: SPR. Particulars: Ds at n; for binding signal: 150 nM IFN-gamma, 930 s.

Where [2] appears, read: Ds at n, PBS + 0.005% NP-40, 25 C.

The Kd is the concentration at which binding is half-saturated.

“GTAAACTGCGTCCGAAGGGGCNTGCAGTGANCCCGAATGGG [VGd1-2Ds-41b]”: in data set [1] (Ds at n, 25 C), the Kd stood at 0.06 nM. In data set [1] (Ds at n, 25 C), “GTAAACTGCGTCCGAAGGGGCATGCAGTGANCCCGAATGGGTCCG [VGd1-ADs-45]” showed a Kd of 0.037 nM. “TCGGGTCATTTAATAATGTAGGTNTGGGCTAGGCNGCTAGTGGAT [IFd1-A2Ds-45]” showed an equilibrium dissociation constant (Kd) in the data set with IFN-gamma (205 mM NaCl, 25 C) of 20 nM.

In data set [1] (Ds at n), “ATCAGTCCACGAGATGGATGGTAGTGGCCGNACGGGGGGGNTGGAGANGCTGGCTG [VG08Ds-57]” returned a binding signal of 0.21 bound ratio.

Consider “TGTCTAAGTANTGTGGGNTTGGAGGGGNTGTCGGA [Ds-09-1-mDsDsDs]”, for which the Kd in data set [1] (Ds at n, retention 90%) is 50 nM. On to “ACTGCGTCCGAAGGGGCNTGCAGTGANCCCGAATGGGTCCG [VGd1-2Ds-41]”, for which the Kd in data set [1] (Ds at n, 25 C) stood at 0.069 nM. Take “TCGGGTCGTTTANTAATGTAGGTNTGGGCTAGGCNGCTAGTGGAT [IF07bDs-45]”: the Kd with IFN-gamma (205 mM NaCl, 25 C) turned out to be 20 nM. Take “TTTTTGTAAACTGCGTCCGAAGGGGCNTGCAGTGANCCCGAATGGGTCCG [VGd1-2Ds-50]”: in data set [1] (Ds at n, 25 C), the Kd was 0.017 nM. The sequence “TCGGGTCATTTANTAATGTAGGTATGGGCTAGGCNGCTAGTGGAT [IFd1-DsADs-45]” displayed a Kd with IFN-gamma (205 mM NaCl, 25 C) of 127 nM. For the sequence “ATCAGTCCACCTATGTGGGTTGGNTGGGGTGTATGTTNGTAGGGCTANGGAGGTGG [IF11Ds-57]”, the binding signal in the data set with IFN-gamma is 0.66 bound ratio. With “TCGGGTCATTTANTAATGTAGGTNTGGGCTAGGCAGCTAGTGGAT [IFd1-DsDsA-45]”, the dissociation constant (Kd) with IFN-gamma (Bound 0.36) is greater than 200 nM. On to “TGTCTAAGTANGGTGGGNTTGGCGGGGNTGTCGGA [Ds-09-1-DsDsDs]”, for which the Kd in data set [1] (Ds at n, PBS + 0.05% NP-40, 25 C, retention 92%) stood at 4 nM.

In turn, “ATCAGTCCACATACGCGGGGGTGTTGAAGGGTTAGTCGGANGTAGTGTGTACAGAG [VG02bDs-57]” came in with a binding signal in data set [1] (Ds at n) of 0.39 bound ratio. “TCGGGTCATTTANTAATGTAGGTNTGGGCTAGGCNGCTAGTGGAT [IFd1-3Ds-45]” registered a Kd with IFN-gamma (205 mM NaCl, 25 C) of 15 nM. Turning to “GTAAACTGCGTCCGAAGGGGCNTGCAGTGANCCCGA [VGd1-2Ds-36b]”, the Kd in data set [1] (Ds at n, 25 C) turned out to be 0.017 nM. In the case of “ATCAGTCCACTCGGGTCGTTTANTAATGTAGGTNTGGGCTAGGCNGCTAGTGGATG [IF07bDs-57]”, in the data set with IFN-gamma (Bound 0.72 (Table 13), 25 C), the equilibrium dissociation constant (Kd) stood at 2 nM. “ATCAGTCCACTAATCAGGAAGANGATAGGGTTTGTCTTNTGTTGCCACGCTGGGAG [IF04Ds-57]” returned a binding signal in the data set with IFN-gamma of 0.1 bound ratio. For the sequence “GTAAACTGCGTCCGAAGGGGCNTGCAGTGAACCCGAATGGGTCCG [VGd1-DsA-45]”, the Kd in data set [1] (Ds at n, 25 C) stood at 0.094 nM. As for “TGTCTAAGTANGGTGGGNTTGGCGGGGATGTCGGA [Ds-09-1-DsDsA]”, the equilibrium dissociation constant (Kd) in data set [1] (Ds at n, retention 32%) was greater than 100 nM. For the sequence “ATCAGTCCACTCGGGTCGTTTANTAATGTAGGTNTGGGCTAGGCNGCTAGTGGATG [IF07bDs-57 (Table 14)]”, the Kd in the data set with IFN-gamma (205 mM NaCl phosphate pH 7.4, 25 C) was determined as 0.8 nM. With “ATCAGTCCACATTGGACTTAGCCCAGCAAGACAATCTACGNTATGCCAGAAGTTGG [IF02Ds-57]”, in the data set with IFN-gamma, the binding signal stood at 0.03 bound ratio. On to “TCCACTCGGGTCATTTANTAATGTAGGTNTGGGCTAGGCNGCTAGTGGA [IFd1-3Ds-49]”, for which, in the data set with IFN-gamma (205 mM NaCl, 25 C), the dissociation constant (Kd) was 1.6 nM.

As to “GTAAACTGCGTCCGAAGGGGCNTGCAGTGANCCCGAATGGGTCCG [VGd1-2Ds-45]”, the Kd in data set [1] (Ds at n, 25 C) worked out at 0.016 nM. In the data set with IFN-gamma, “ATCAGTCCACTCCTTCTGTCATNGGGCAGGCGCNTTTGGTGTAGNGTTTATCTTGG [IF07aDs-57]” came in with a binding signal of 0.07 bound ratio.

Consider “GTAAACTGAGTCCGAAGGGGCNTGCAGTGANCCCGAATGGGTCCG [VG20Ds-45]”, for which, in data set [1] (Ds at n, 25 C), the Kd came out at 0.022 nM. With “TGTCTAAGTAAGGTGGGATTGGCGGGGATGTCGGA [Ds-09-1-AAA]”, the Kd in data set [1] (retention 28%) is greater than 100 nM. Consider “TGTCTAAGTANGGTGGGATTGGCGGGGNTGTCGGA [Ds-09-1-DsADs]”, for which the Kd in data set [1] (Ds at n, retention 33%) was greater than 100 nM. In data set [1] (25 C), “CGGTAAACTGCGTCCGAAGGGGCATGCAGTGAACCCGAATGGGTCCG [VGd1-2A-47]” yielded a Kd of 0.2 nM. As for “TGACCTCGGGTCATTTANTAATGTAGGTNTGGGCTAGGCNGCTAGGTCA [IFd1-3Ds-49b]”, the Kd with IFN-gamma (205 mM NaCl, 25 C) came to 1.1 nM. For “CGGTAAACTGCGTCCGAAGGGGCNTGCAGTGANCCCGAATGGGTCCG [VGd1-2Ds-47]”, in data set [1] (setting [2]), the Kd is 0.0046 nM. As to “TCGGGTCATTTAATAATGTAGGTATGGGCTAGGCNGCTAGTGGAT [IFd1-AADs-45]”, in the data set with IFN-gamma (205 mM NaCl, 25 C), the Kd was determined as 113 nM. “GTCCGAAGGGGCNTGCAGTGANCCCGAATGGGTCCG [VGd1-2Ds-36]” returned a Kd in data set [1] (Ds at n, Bound 0.02, 25 C) of 4.6 nM. Consider “TGTCTAAGTAAGGTGGGNTTGGCGGGGNTGTCGGA [Ds-09-1-ADsDs]”, for which, in data set [1] (Ds at n, PBS + 0.05% NP-40, 25 C, retention 94%), the Kd came to 1 nM. As to “CCGGTAAACTGCGTCCGAAGGGGCNTGCAGTGANCCCGAATGGGTCCGG [VGd1-2Ds-49]”, the Kd in data set [1] (setting [2]) came to 0.0046 nM.

Regarding “ATCAGTCCACAAAGTGCTGGGTCCGNATGGCGGGGGGTTAGGCCTCTTTGGGGCGG [VG01Ds-57]”, the binding signal in data set [1] (Ds at n) was 0.2 bound ratio. For “ATCAGTCCACATCGAGCGTGAGGTCCGAAAGGCGACTCTTNTAACATCAAGTAATG [VG02aDs-57]”, the binding signal in data set [1] (Ds at n) came to 0.15 bound ratio. On to “TCAGTCCACGGTAAACTGAGTCCGAAGGGGCNTGCAGTGANCCCGAATGGGTCCGG [VG20Ds-57]”, for which the Kd in data set [1] (Ds at n, printed as uM, evidently pM, 25 C) amounted to 0.0059 nM.

For the origin of these results see patent publication US20150119254.
